Measured values taken from publication PMC4374719, “Herpesviral G Protein-Coupled Receptors Activate NFAT to Induce Tumor Formation via Inhibiting the SERCA Calcium ATPase” (PLoS Pathogens, 2015).

Molecular target: T1, KSHV G protein-coupled receptor (kGPCR), stably expressed in HUVEC (Kaposi's sarcoma-associated herpesvirus …, UniProt Q98146 1-342)
T1 construct: GPCR homologue of Kaposi's sarcoma-associated herpesvirus (kGPCR); Probably HA-tagged like the other constructs, but no tag and no primary antibody is named for the proximity ligation assay; also called HUVEC/kGPCR
T1 sequence: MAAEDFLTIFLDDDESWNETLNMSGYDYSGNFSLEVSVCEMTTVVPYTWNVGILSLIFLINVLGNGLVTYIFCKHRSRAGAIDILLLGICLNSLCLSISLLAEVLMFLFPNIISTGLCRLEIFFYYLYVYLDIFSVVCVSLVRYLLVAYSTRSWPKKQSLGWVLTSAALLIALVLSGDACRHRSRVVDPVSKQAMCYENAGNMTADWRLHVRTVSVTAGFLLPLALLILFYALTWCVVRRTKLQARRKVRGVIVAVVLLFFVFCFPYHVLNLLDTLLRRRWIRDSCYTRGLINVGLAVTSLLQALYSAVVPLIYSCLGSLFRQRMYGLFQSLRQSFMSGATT
Assay: proximity ligation; Duolink in situ kit on fixed HUVEC-Vector or HUVEC-kGPCR stable cells; spots counted in more than 100 cells of each group
Conditions: partners not purified

B1: sarco/endoplasmic reticulum calcium ATPase 2 (SERCA2), endogenous in HUVEC (enzyme, human (endogenous in HUVEC), UniProt P16615 1-1042, looked up)
chain: MENAHTKTVEEVLGHFGVNESTGLSLEQVKKLKERWGSNELPAEEGKTLLELVIEQFEDLLVRILLLAACISFVLAWFEEGEETITAFVEPFVILLILVANAIVGVWQERNAENAIEALKEYEPEMGKVYRQDRKSVQRIKAKDIVPGDIVEIAVGDKVPADIRLTSIKSTTLRVDQSILTGESVSVIKHTDPVPDPRAVNQDKKNMLFSGTNIAAGKAMGVVVATGVNTEIGKIRDEMVATEQERTPLQQKLDEFGEQLSKVISLICIAVWIINIGHFNDPVHGGSWIRGAIYYFKIAVALAVAAIPEGLPAVITTCLALGTRRMAKKNAIVRSLPSVETLGCTSVICSDKTGTLTTNQMSVCRMFILDRVEGDTCSLNEFTITGSTYAPIGEVHKDDKPVNCHQYDGLVELATICALCNDSALDYNEAKGVYEKVGEATETALTCLVEKMNVFDTELKGLSKIERANACNSVIKQLMKKEFTLEFSRDRKSMSVYCTPNKPSRTSMSKMFVKGAPEGVIDRCTHIRVGSTKVPMTSGVKQKIMSVIREWGSGSDTLRCLALATHDNPLRREEMHLEDSANFIKYETNLTFVGCVGMLDPPRIEVASSVKLCRQAGIRVIMITGDNKGTAVAICRRIGIFGQDEDVTSKAFTGREFDELNPSAQRDACLNARCFARVEPSHKSKIVEFLQSFDEITAMTGDGVNDAPALKKAEIGIAMGSGTAVAKTASEMVLADDNFSTIVAAVEEGRAIYNNMKQFIRYLISSNVGEVVCIFLTAALGFPEALIPVQLLWVNLVTDGLPATALGFNPPDLDIMNKPPRNPKEPLISGWLFFRYLAIGCYVGAATVGAAAWWFIAADGGPRVSFYQLSHFLQCKEDNPDFEGVDCAIFESPYPMTMALSVLVTIEMCNALNSLSENQSLLRMPPWENIWLVGSICLSMSLHFLILYVEPLPLIFQITPLNVTQWLMVLKISLPVILMDETLKFVARNYLEPGKECVQPATKSCSFSACTDGISWPFVLLIMPLVIWVYSTDTNFSDMFWS
notes: SERCA2 of human umbilical vein endothelial cells; source: endogenous, HUVEC, in fixed cells
- fold of proximity ligation fluorescent spots over control HUVEC cells: > 10 fold
